Test results from patent publication US6339139.

Columns and labels:
Test in all cases: cell-based or functional assay
[1] = biological target: insulin growth factor I receptor (human) (UniProt P08069)
[2] = biological target: insulin growth factor II receptor (human) (UniProt P11717)
[3] = biological target: epidermal growth factor receptor (human) (UniProt P00533)

UniProt P08069, sequence (P08069 31-1367): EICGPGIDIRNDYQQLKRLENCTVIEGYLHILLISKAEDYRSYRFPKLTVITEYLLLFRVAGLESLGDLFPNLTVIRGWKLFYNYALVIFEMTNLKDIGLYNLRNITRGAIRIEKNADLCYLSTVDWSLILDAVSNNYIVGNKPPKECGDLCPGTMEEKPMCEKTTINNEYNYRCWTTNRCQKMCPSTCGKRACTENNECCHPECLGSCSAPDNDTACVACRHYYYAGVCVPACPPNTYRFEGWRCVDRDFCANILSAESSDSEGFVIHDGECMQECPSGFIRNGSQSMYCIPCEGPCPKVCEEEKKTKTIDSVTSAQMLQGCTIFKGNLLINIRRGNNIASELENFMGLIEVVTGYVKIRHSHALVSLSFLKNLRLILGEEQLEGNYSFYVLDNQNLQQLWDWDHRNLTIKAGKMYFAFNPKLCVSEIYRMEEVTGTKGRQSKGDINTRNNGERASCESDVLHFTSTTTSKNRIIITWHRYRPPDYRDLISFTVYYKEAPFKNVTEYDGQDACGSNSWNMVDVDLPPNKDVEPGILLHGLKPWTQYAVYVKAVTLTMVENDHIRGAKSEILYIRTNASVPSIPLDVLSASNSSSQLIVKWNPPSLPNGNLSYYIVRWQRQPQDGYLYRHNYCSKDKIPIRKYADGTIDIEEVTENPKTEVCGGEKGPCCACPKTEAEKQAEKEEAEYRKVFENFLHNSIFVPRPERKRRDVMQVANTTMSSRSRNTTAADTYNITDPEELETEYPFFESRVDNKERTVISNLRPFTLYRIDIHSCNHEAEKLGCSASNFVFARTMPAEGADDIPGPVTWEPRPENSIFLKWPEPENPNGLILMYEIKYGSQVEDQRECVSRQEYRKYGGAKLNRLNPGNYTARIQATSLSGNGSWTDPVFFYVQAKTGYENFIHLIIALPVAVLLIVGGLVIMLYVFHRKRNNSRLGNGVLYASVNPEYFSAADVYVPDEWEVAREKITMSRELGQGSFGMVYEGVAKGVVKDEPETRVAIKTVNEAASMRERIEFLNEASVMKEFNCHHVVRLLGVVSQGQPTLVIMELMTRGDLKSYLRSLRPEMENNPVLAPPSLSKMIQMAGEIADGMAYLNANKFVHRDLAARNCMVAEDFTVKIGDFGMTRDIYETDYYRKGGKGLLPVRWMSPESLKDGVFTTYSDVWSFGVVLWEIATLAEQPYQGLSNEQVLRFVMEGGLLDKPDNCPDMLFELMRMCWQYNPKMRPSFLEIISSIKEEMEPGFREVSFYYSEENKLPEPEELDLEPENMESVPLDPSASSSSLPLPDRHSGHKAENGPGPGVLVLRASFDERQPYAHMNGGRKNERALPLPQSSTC
UniProt P11717, sequence (P11717 41-2491): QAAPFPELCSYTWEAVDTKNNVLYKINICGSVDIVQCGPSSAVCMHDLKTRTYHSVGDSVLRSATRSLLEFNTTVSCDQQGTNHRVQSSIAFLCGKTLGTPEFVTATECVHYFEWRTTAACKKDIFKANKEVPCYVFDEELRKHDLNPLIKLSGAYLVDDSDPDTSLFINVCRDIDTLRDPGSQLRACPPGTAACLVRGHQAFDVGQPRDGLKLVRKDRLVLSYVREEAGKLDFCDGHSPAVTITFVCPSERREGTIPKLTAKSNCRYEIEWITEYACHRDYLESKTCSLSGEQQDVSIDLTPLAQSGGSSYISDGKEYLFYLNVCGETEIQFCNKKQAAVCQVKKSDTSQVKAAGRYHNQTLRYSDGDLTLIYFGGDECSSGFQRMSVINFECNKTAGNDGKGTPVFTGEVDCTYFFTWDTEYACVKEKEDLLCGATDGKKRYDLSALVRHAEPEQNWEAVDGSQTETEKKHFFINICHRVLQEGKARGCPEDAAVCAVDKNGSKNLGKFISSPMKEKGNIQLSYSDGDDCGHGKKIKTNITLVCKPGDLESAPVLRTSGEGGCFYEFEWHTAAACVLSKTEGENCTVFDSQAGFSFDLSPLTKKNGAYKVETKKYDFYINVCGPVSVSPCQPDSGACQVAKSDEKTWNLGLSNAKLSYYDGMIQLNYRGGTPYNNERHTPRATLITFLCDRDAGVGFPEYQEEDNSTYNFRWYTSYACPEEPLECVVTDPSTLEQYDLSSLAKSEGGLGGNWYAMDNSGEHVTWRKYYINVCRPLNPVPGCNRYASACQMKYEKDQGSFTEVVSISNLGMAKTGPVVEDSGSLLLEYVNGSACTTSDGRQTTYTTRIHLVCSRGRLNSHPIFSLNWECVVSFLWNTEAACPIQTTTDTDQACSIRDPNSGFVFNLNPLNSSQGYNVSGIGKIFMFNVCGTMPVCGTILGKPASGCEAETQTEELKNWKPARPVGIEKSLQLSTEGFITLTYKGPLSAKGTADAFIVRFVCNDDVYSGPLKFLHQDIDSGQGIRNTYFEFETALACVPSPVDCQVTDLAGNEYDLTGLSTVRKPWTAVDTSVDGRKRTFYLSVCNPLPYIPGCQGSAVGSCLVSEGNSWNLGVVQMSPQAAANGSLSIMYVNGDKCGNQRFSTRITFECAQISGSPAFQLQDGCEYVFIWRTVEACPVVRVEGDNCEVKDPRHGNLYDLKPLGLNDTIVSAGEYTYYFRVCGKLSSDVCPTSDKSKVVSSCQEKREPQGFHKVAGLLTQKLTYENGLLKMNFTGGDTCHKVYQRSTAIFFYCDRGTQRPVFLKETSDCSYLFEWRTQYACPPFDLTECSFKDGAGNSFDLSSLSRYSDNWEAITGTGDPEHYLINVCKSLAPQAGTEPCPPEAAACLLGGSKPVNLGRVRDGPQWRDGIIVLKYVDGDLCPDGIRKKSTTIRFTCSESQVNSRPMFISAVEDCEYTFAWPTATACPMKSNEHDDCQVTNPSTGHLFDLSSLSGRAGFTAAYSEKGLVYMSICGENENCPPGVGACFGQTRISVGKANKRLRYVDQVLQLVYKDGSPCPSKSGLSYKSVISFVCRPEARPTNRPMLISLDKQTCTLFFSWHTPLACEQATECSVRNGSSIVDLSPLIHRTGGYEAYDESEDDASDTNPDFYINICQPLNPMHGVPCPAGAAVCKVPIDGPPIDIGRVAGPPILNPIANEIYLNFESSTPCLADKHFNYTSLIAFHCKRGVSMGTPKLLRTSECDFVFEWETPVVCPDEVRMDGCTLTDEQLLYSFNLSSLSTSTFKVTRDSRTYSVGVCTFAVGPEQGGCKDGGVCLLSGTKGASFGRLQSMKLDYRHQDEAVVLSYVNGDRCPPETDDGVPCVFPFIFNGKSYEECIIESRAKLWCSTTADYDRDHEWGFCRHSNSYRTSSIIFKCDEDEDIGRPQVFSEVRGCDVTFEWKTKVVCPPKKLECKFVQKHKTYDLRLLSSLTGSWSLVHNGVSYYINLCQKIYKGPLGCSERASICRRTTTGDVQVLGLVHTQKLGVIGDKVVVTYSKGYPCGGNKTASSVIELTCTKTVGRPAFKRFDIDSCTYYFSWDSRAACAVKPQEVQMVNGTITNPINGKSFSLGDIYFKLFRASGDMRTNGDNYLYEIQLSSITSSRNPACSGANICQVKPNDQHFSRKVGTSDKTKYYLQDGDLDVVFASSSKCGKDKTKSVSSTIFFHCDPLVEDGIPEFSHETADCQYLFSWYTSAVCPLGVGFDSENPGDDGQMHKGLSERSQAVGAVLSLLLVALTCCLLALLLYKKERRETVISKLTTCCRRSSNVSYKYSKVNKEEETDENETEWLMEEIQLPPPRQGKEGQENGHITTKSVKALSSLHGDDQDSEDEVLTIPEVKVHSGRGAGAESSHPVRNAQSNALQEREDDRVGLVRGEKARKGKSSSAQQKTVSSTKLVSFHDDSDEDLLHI

Substance	Percentage of β-gal positive cells, SMMC-7721 [1]	Percentage of β-gal positive cells, SMMC-7721 [2]	Percentage of β-gal (+) cells, 3AO [3]	Percentage of β-gal (+) cells, BEL-7402 [3]	Percentage of β-gal (+) cells, Bcap-37 [3]	Percentage of β-gal (+) cells, SMMC-7721 [3]	Percentage of β-gal (+) cells, SPC-A1 [3]	Percentage of β-gal (+) cells, U87 [3]
E5-polylysine/HA20-polylysine/pSV β-gal DNA	60%	60%	–	–	–	–	–	–
E5-polylysine/pSV β-gal DNA	10%	10%	–	–	–	–	–	–
GE7-polylysine/HA20-polylysine/pSV-β-gal DNA	–	–	> 65%	> 90%	> 80%	> 80%	> 80%	> 30%
